B1: HSDH_long: long version of 12α-HSDH from Clostridium sp. group P strain 48-50, SEQ ID NO: 2, recombinantly expressed in E. coli (protein, listed as Clostridium sp.)
chain: MDFIDFKEMGRMGIFDGKVAIITGGGKAKSIGYGIAVAYAKEGANLVLTGRNEQKLLDAKEELERLYGIKVLPLAVDVTPSDESEDRVKEAVQKVIAEFGRIDVLINNAQASASGIPLSMQTKDHFDLGIYSGLYATFYYMRECYPYLKETQGSVINFASGAGLFGNVGQCSYAAAKEGIRGLSRVAATEWGKDNINVNVVCPLAMTAQLENFKLSYPEAYEKNLRGVPMGRFGDPELDIGRVCVQLGSPDFKYMSGETLTLEGGMGQRP
B2: HSDH_short: N-terminally truncated short version of 12α-HSDH from Clostridium sp. group P strain 48-50, SEQ ID NO: 4 (protein)
chain: IFDGKVAIITGGGKAKSIGYGIAVAYAKEGANLVLTGRNEQKLLDAKEELERLYGIKVLPLAVDVTPSDESEDRVKEAVQKVIAEFGRIDVLINNAQASASGIPLSMQTKDHFDLGIYSGLYATFYYMRECYPYLKETQGSVINFASGAGLFGNVGQCSYAAAKEGIRGLSRVAATEWGKDNINVNVVCPLAMTAQLENFKLSYPEAYEKNLRGVPMGRFGDPELDIGRVCVQLGSPDFKYMSGETLTLEGGMGQRP

Assay: Standard 12α-HSDH activity determination (NADP+-dependent oxidation of cholic acid, absorption at 340 nm)
Format: biochemical
Design: unit not given here
Details: cell lysate
Description: The activity is defined as follows: 1 U of the enzyme corresponds to the amount of enzyme which catalyzes the reaction of 1 μmol/min of a 5 mM cholic acid solution in potassium phosphate buffer (50 mM, pH 8.0) at room temperature (i.e. about 20° C.-23° C.).
For the activity determination, 790 μl of potassium phosphate buffer (50 mM, pH 8.0), […] of cholic acid (50 mM in potassium phosphate buffer (50 mM, pH 8.0)) and 10 μl of enzyme solution to be measured were mixed in a cuvette. 100 μl of NADP^+ (2.5 mM) was added at the start of the reaction and the increase in the absorption at 340 nm was determined photometrically. The gradient over 30 s was determined at RT. Determination of the activity took place according to the Lambert-Beer's law.

[1] = E. coli BL21 (DE3), expression period 4 h
[2] = E. coli BL21 (DE3), expression period 22 h
[3] = E. coli Rosetta (DE3), expression period 4 h
[4] = E. coli Rosetta (DE3), expression period 22 h

Row | Molecule | Activity [of culture medium] [1] | Activity [of culture medium] [2] | Activity [of culture medium] [3] | Activity [of culture medium] [4]
1 | B1 | 12700 | 36800 | 3100 | 19500
2 | B2 | 12800 | 33000 | 3400 | 24300

Source: patent US20140147887A1, “NOVEL 12 ALPHA-HYDROXYSTEROID DEHYDROGENASES, PRODUCTION AND USE THEREOF” (PharmaZell GmbH, priority 2006, published 2014)
